Test results: US20090269786A1

Tests used:
[1] = target: human ρ1 GABAC receptor (human) (UniProt P24046); test: flow cytometry on SHp5-ρ1 cells, antibody at 1/1,000 dilution
[2] = target: human ρ1 GABAC receptor (human) (UniProt P24046); test: flow cytometry on SHp5-ρ1 cells, antibody at 1/25 or 1/50 dilution

Chain of UniProt P24046 (P24046 22-479): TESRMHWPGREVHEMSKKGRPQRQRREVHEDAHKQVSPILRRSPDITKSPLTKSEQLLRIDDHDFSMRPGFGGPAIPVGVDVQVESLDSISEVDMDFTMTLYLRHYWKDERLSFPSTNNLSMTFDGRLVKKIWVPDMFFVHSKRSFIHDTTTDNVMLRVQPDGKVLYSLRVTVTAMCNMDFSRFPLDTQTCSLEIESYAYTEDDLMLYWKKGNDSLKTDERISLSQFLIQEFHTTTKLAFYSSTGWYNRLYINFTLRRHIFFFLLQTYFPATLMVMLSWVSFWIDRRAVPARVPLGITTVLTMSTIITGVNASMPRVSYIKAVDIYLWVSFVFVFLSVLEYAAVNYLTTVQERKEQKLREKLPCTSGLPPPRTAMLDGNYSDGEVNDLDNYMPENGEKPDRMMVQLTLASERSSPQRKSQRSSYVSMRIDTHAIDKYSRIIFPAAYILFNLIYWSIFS

percent positive cells [1]: 47%
percent positive cells [2]: 63%
Substance: affinity-purified GABAC Ab N-14 (antibody)
